Experimental findings from patent publication US20110111406A1 (published 2011) are described below.

Assay [1] has as its target T1, recombinant soluble human IL-6 receptor (SR344) (human, UniProt P08887 20-344).
T1 construct: In the 'membrane-type IL-6 receptor' Biacore assays the same SR344 was biotinylated and immobilized via streptavidin; also called soluble IL-6 receptor; membrane-type IL-6 receptor (as biotinylated SR344 immobilized on the sensor chip)
T1 sequence (looked up): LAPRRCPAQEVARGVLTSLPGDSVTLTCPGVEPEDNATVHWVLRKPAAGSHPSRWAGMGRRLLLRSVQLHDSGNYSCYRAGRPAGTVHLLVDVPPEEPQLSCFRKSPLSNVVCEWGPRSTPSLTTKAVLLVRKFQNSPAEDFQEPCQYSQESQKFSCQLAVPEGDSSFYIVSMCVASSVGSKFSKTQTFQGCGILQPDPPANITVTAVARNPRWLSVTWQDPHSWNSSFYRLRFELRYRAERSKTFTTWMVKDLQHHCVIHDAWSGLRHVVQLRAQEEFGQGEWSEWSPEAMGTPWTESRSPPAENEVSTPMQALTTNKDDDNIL
Description: Biacore T100, biotinylated SR344 immobilized via streptavidin (membrane-type IL-6 receptor model), antibody as analyte; ratio of kd at pH 5.8 to pH 7.4. As to the method:
(§1) Binding to the membrane-type IL-6 receptor was evaluated by evaluating binding to the IL-6 receptor immobilized on a sensor chip. SR344 was biotinylated in accordance with a method known among persons with ordinary skill in the art, and the biotinylated SR344 was immobilized on the sensor chip via streptavidin using the affinity between streptavidin and biotin. All the measurements were carried out at 37° C. The mobile phase buffer was 10 mM MES (pH 5.8), 150 mM NaCl and 0.05% Tween 20.
(§2) The pH-dependently-binding clones were injected under the condition of pH 7.4 to allow them to bind to SR344, and then, the pH-dependent dissociation of each clone at the pH of the mobile phase, pH 5.8, was observed. The results are shown in FIG. 21 (results for Fv1-M71, Fv1-M73, Fv3-M71, and Fv3-M73 are shown in FIG. 21, while results for other clones are shown in FIGS. 17 and 19). Analyses were carried out in the same manner as in Example 10 and the pH dependencies of the dissociation rate constants of all of the eleven types of clones are shown in Table 12.
(In general: Surface plasmon resonance follows binding to a sensor surface in real time, without labels.)

For assay [2], the target named is T1, recombinant soluble human IL-6 receptor …. Described as above. Here is the method:
as §1, §2
This is another data set of the same source.

The target is the same in assay [3]. Description: Biacore T100, antibody captured on protein A/G, SR344 as analyte, 37C; ratio of KD at pH 5.8 to pH 7.4. As to the method:
(§3) Kinetic analysis of antigen-antibody reactions at pH 7.4 and pH 5.8 was carried out using Biacore T100 (GE Healthcare) for the four types of antibodies prepared: WT-IgG1, H54/L28-IgG1, H170/L82-IgG1, and Fv4-IgG1(buffer: 10 mM MES (pH 7.4 or pH 5.8), 150 mM NaCl, 0.05% Surfactant-P20). The antibodies were bound to a sensor chip on which recomb-protein A/G (Pierce) was immobilized by amine coupling, and SR344 adjusted to an appropriate concentration was injected therein as an analyte. The association with and dissociation from SR344 of each type of antibody were observed on a real-time basis. All the measurements were carried out at 37° C. Association rate constants kₐ (1/Ms) and dissociation rate constants kd (1/s) were calculated using Biacore T100 Evaluation Software (GE Healthcare), and dissociation constants KD (M) were calculated based on those values (Table 17).

The target is the same in assay [4]. Description: Biacore T100, antibody captured on protein A/G, SR344 as analyte, 37C; ratio of kd at pH 5.8 to pH 7.4. As to the method:
as §3

Assay [5] has the same target. Description: Biacore T100, biotinylated SR344 immobilized via streptavidin (membrane-type IL-6 receptor model), antibody as analyte; ratio of kd at pH 5.8 to pH 7.4. As to the method: as §1, §2
This is another data set of the same source.

In assay [6] the target is T2, human IL-6 (Toray) (human, UniProt P05231 30-212).
T2 construct: also called human interleukin-6
Description: Biacore T100, antibody captured on protein A/G, human IL-6 as analyte, 37C; ratio of KD at pH 5.5 to pH 7.4. As to the method:
(§4) Kinetic analysis of antigen-antibody reactions at pH 5.5 and pH 7.4 was carried out using Biacore T100 (GE Healthcare) for the three types of antibodies prepared as mentioned above: Anti-IL6 wild type, Anti-IL6 clone 1, and Anti-IL-6 clone 2 (buffer: DPBS(−) (pH 7.4 or pH 5.5), 150 mM NaCl). The antibodies were bound to a sensor chip on which recomb-protein A/G (Pierce) was immobilized by amine coupling, and then human IL-6 (Toray) adjusted to an appropriate concentration was injected on the chip as an analyte. All the measurements were carried out at 37° C. Association rate constants kₐ (1/Ms) and dissociation rate constants kd (1/s) were calculated using Biacore T100 Evaluation Software (GE Healthcare), and dissociation constants KD (M) were calculated based on those values (Table 14). Furthermore, the ratio of affinity at pH 5.5 and pH 7.4 was calculated for each clone to evaluate the pH-dependent binding.

Assay [7] has as its target T2, human IL-6 (Toray). Description: Biacore T100, human IL-6 as analyte; KD(pH 5.5)/KD(pH 7.4) compared with Anti-IL6 wild type. As to the method:
as §4

For assay [8], the target named is T1, recombinant soluble human IL-6 receptor …. In words: Biacore T100, antibody captured on protein A/G, SR344 as analyte, 37C; ratio of KD at pH 5.8 to pH 7.4. Here is the method:
(§5) Kinetic analyses of antigen-antibody reactions at pH 5.8 and pH 7.4 were carried out using Biacore T100 (GE Healthcare) on the four antibodies: humanized PM1 antibody (WT) and H3pI/L73, CLH5/L73, and H170/L82 produced in Examples 2 and 4 (buffer: 10 mM MES (pH 7.4 or pH 5.8), 150 mM NaCl, and 0.05% Tween 20). Various antibodies were bound onto a sensor chip immobilized with recomb-protein A/G (Pierce) by amine coupling. SR344 adjusted to concentrations of 9.8 to 400 nM was injected to the chip as an analyte. […] All the measurements were carried out at 37° C. Association rate constants kₐ (1/Ms) and dissociation rate constants kd (1/s) were calculated using Biacore T100 Evaluation Software (GE Healthcare), and dissociation constants KD (M) were calculated on the basis of those values (Table 5). Moreover, the ratio of the affinities at pH 5.8 and pH 7.4 were calculated for each clone to evaluate pH-dependent binding. All the measurements were carried out at 37° C.
The source holds these as a separate data set.

Assay [9] shares this target. Description: Biacore T100, SR344 as analyte; KD(pH5.8)/KD(pH7.4) compared with WT. As to the method:
as §5

Read-outs that look alike come from different tables or passages of the source.

B1: Fv4-M73 (antibody)
heavy: QVQLQESGPGLVKPSETLSLTCAVSGHSISHDHAWSWVRQPPGEGLEWIGFISYSGITNYNPSLQGRVTISRDNSKNTLYLQMNSLRAEDTAVYYCARSLARTTAMDYWGEGTLVTVSSASTKGPSVFPLAPSSKSTSGGTAALGCLVKDYFPEPVTVSWNSGALTSGVHTFPAVLQSSGLYSLSSVVTVPSSNFGTQTYTCNVDHKPSNTKVDKTVERKSCVECPPCPAPPVAGPSVFLFPPKPKDTLMISRTPEVTCVVVDVSQEDPEVQFNWYVDGVEVHNAKTKPREEQFNSTFRVVSVLTVVHQDWLNGKEYKCKVSNKGLPAPIEKTISKTKGQPREPQVYTLPPSQEEMTKNQVSLTCLVKGFYPSDIAVEWESNGQPENNYKTTPPMLDSDGSFFLYSKLTVDKSRWQEGNVFSCSVMHEALHAHYTQKSLSLSP
light: DIQMTQSPSSLSASVGDSVTITCQASTDISSHLNWYQQKPGKAPELLIYYGSHLLSGVPSRFSGSGSGTDFTFTISSLEAEDAATYYCGQGNRLPYTFGQGTKVEIERTVAAPSVFIFPPSDEQLKSGTASVVCLLNNFYPREAKVQWKVDNALQSGNSQESVTEQDSKDSTYSLSSTLTLSKADYEKHKVYACEVTHQGLSSPVTKSFNRGEC
notes: also called VH3-M73/VL3-CK
In the case of B1, the “kd(pH 5.8)/kd(pH 7.4)” value in [1] and in [2] was 10.1 each time.

B2: Fv4-IgG1 (antibody)
heavy: not shown
light: DIQMTQSPSSLSASVGDSVTITCQASTDISSHLNWYQQKPGKAPELLIYYGSHLLSGVPSRFSGSGSGTDFTFTISSLEAEDAATYYCGQGNRLPYTFGQGTKVEIERTVAAPSVFIFPPSDEQLKSGTASVVCLLNNFYPREAKVQWKVDNALQSGNSQESVTEQDSKDSTYSLSSTLTLSKADYEKHKVYACEVTHQGLSSPVTKSFNRGEC
notes: also called VH3-IgG1/VL3-CK
For the molecule B2, the “KD(pH5.8)/KD(pH7.4)” value in [3] was found to be 27.3. In addition, the “kd(pH 5.8)/kd(pH 7.4)” value in assay [4] was determined as 38.8; in assay [5] it was 5.56; in assay [1], 5.56; in assay [2], 5.56.

B3: Anti-IL6 wild type (antibody, human IgG1, kappa, V domains shown)
VH: EVQLVESGGKLLKPGGSLKLSCAASGFTFSSFAMSWFRQSPEKRLEWVAEISSGGSYTYYPDTVTGRFTISRDNAKNTLYLEMSSLRSEDTAMYYCARGLWGYYALDYWGQGTSVTVSS
VL: QIVLIQSPAIMSASPGEKVTMTCSASSSVSYMYWYQQKPGSSPRLLIYDTSNLASGVPVRFSGSGSGTSYSLTISRMEAEDAATYYCQQWSGYPYTFGGGTKLEIKR
notes: also called WT (anti-IL-6 antibody of WO 2004/039826)
As for B3, the “KD(pH 5.5)/KD(pH 7.4)” value in assay [6] came to 0.8.

B4: Anti-IL6 clone 1 (antibody, human IgG1, kappa, V domains shown)
VH: EVQLVESGGKLLKPGGSLKLSCAASGFTFSSHAMSWFRQSPEKRLEWVAEISSGGSYTYHPHTVTGRFTISRDNAKNTLYLEMSSLRSEDTAMYYCARGLWGHYALDYWGQGTSVTVSS
VL: QIVLIQSPAIMSASPGEKVTMTCSASSSVSYMYWYQQKPGSSPRLLIYDTSNHASGVPVRFSGSGSGTSYSLTISRMEAEDAATYYCQHWSGHPYTFGGGTKLEIKR
notes: H chain (c1) and L chain (c1)
Regarding B4, the “pH-dependent binding ability relative to WT” value in assay [7] worked out at 10 times. For the same molecule, in [6], the “KD(pH 5.5)/KD(pH 7.4)” value turned out to be 10.3.

B5: humanized PM1 antibody (wild type, WT) (antibody, human IgG1, kappa, V domains shown)
VH: QVQLQESGPGLVRPSQTLSLTCTVSGYSITSDHAWSWVRQPPGRGLEWIGYISYSGITTYNPSLKSRVTMLRDTSKNQFSLRLSSVTAADTAVYYCARSLARTTAMDYWGQGSLVTVSS
VL: DIQMTQSPSSLSASVGDRVTITCRASQDISSYLNWYQQKPGKAPKLLIYYTSRLHSGVPSRFSGSGSGTDFTFTISSLQPEDIATYYCQQGNTLPYTFGQGTKVEIKR
notes: Tested as IgG1; also called WT-IgG1; H(WT)/L(WT)
Take B5: the entries for the “KD(pH5.8)/KD(pH7.4)” value in assay [8] and in [3] were 2.4 and 1.6, respectively. Moreover, the “kd(pH 5.8)/kd(pH 7.4)” value in assay [4] stood at 2.9; in assay [5], 1; in [2] it was 1.

B6: H3pI/L73 (antibody, IgG1, V domains shown)
VH: QVQLQESGPGLVKPSETLSLTCAVSGHSISHDHAHSWVRQPPGEGLEWIGYISYSGITNYNPSLKGRVTISRDTSKNQFSLKLSSVTAADTAAYYCARSLARTTAMDYWGEGTLVTVSS
VL: DIQMTQSPSSLSASVGDSVTITCQASQHISSHLNWYQQKPGKAPELLIYYGSHLHSGVPSRFSGSGSGTDFTFTISSLEAEDAATYYCGQGNRLPYTFGQGTKVEIE
notes: antibody expressed as IgG1; also called H3pI/L73-IgG1; H3pl/L73
Turning to B6, the “pH-dependent binding (affinity ratio) relative to WT” value in assay [9] was found to be 15 times. Moreover, the “KD(pH5.8)/KD(pH7.4)” value in [8] worked out at 41.3. The “kd(pH 5.8)/kd(pH 7.4)” value in [5] and in assay [2] was 2.59 each time.

B7: H54/L28-IgG1 (antibody, V domains shown)
VH: QVQLQESGPGLVKPSETLSLTCAVSGYSISDDQAWSWVRQPPGEGLEWIGYISYSGITNYNPSLKGRVTISRDTSKNQFSLKLSSVTAADTAAYYCARSLARTTAMDYWGEGTLVTVSS
VL: DIQMTQSPSSLSASVGDSVTITCQASQDISSYLNWYQQKPGKAPELLIYYGSELHSGVPSRFSGSGSGTDFTFTISSLEAEDAATYYCQQGNSLPYTFGQGTKVEIE
notes: tested as IgG1
With B7, the “KD(pH5.8)/KD(pH7.4)” value in [3] was 0.7. In addition, in assay [4], the “kd(pH 5.8)/kd(pH 7.4)” value worked out at 2.

B8: Fv2-IgG1 (antibody, V domains shown)
VH: QVQLQESGPGLVKPSETLSLTCAVSGYSISHDHAWSWVRQPPGEGLEWIGHISYSGITNYNPHLQDRVTISRDTSKNQFSLKLSSVTAADTAAYYCARFLARITAHDHWGEGTLVTVSS
VL: DIQMTQSPSSLSASVGDSVTITCQASQDISSHLNWYQQKPGKAPELLIYYGSHLHSGVPSRFSGSGSGTDFTFTISSLEAEDAATYYCGQGNRLPYTFGQGTKVEIE
notes: also called VH1-IgG1/L82
B8: the “kd(pH 5.8)/kd(pH 7.4)” value in assay [5] and in assay [2] was 7.18 each time.
